Test results taken from patent US20250076311A1 (Chugai, published 2025).
Changes are numbered by the printed parent chain. Names may count otherwise.

T1: human FcγRIIaH extracellular domain, His-tagged (human, UniProt P12318 34-217)
T1 construct: also called human FcgRIIaH; FcγRIIa type H
T1 sequence: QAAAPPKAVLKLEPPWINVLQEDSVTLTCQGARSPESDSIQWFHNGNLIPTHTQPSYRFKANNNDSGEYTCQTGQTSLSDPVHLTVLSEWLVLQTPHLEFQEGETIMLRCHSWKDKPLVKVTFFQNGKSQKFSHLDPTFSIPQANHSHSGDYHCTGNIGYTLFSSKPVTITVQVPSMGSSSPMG

T2: human FcγRIIaR extracellular domain, His-tagged (human, UniProt P12318 34-217)
T2 construct: also called human FcgRIIaR; FcγRIIa type R
T2 chain: T1 sequence with H134R

T3: human FcγRIIb extracellular domain, His-tagged (human, UniProt P31994 43-217)
T3 construct: also called human FcgRIIb
T3 sequence: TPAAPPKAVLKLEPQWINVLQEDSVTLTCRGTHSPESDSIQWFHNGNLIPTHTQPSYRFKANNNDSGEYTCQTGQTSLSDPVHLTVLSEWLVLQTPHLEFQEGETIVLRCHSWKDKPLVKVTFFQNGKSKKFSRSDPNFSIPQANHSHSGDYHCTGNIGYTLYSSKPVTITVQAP

B1: GpH7-B3 G236D / GpL16-k0 (antibody, human IgG1, kappa)
heavy: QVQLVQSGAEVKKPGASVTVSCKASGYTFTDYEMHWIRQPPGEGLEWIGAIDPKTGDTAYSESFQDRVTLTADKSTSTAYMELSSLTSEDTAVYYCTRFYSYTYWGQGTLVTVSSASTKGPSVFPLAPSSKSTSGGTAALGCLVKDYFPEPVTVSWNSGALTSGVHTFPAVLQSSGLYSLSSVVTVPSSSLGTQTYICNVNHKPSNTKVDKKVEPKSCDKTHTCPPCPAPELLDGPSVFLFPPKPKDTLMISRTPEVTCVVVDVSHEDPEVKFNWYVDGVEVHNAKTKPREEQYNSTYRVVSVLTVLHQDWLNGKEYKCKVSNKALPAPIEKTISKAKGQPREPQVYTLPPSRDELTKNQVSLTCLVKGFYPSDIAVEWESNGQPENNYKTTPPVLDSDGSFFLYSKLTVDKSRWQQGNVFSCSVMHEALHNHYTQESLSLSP
light: DIVMTQSPLSLPVTPGEPASISCQASESLVHSNRNTYLHWYLQKPGQSPQLLIYKVSNRFSGVPDRFSGSGSGTDFTLKISRVEAEDVGVYYCSQNTHVPPTFGQGTKVEIERTVAAPSVFIFPPSDEQLKSGTASVVCLLNNFYPREAKVQWKVDNALQSGNSQESVTEQDSKDSTYSLSSTLTLSKADYEKHKVYACEVTHQGLSSPVTKSFNRGEC
notes: also called B3 variant G236D
B2: GpH7-B3 K334I / GpL16-k0 (antibody, human IgG1, kappa)
heavy: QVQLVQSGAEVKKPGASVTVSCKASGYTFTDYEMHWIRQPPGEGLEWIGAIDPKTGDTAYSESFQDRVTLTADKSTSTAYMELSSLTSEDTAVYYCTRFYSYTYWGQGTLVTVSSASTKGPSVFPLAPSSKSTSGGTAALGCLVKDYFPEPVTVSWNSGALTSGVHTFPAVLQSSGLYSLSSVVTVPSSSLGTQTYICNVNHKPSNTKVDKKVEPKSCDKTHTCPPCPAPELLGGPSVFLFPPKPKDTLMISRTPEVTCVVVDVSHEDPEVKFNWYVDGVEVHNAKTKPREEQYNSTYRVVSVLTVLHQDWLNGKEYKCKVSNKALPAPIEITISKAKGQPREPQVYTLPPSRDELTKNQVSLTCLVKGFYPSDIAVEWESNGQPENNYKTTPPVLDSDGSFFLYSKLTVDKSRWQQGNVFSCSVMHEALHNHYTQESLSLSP
light: B1 light
notes: also called B3 variant K334I
B3: GpH7-B3 H268E / GpL16-k0 (antibody, human IgG1, kappa)
heavy: not shown
light: B1 light
notes: also called B3 variant H268E
B4: GpH7-B3 K334V / GpL16-k0 (antibody, human IgG1, kappa)
heavy: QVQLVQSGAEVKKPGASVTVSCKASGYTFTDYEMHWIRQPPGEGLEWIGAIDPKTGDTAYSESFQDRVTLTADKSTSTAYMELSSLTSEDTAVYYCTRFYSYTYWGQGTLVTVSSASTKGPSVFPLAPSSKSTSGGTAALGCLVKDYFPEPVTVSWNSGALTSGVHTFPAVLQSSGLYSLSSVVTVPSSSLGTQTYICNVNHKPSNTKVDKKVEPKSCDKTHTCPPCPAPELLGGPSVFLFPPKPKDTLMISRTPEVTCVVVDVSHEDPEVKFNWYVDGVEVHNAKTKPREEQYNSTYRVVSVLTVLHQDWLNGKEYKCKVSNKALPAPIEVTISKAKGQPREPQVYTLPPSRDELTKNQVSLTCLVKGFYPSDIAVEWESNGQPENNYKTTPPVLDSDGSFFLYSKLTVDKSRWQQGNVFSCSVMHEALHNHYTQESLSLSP
light: B1 light
notes: also called B3 variant K334V
B5: GpH7-B3 G236E / GpL16-k0 (antibody, human IgG1, kappa)
heavy: not shown
light: B1 light
notes: also called B3 variant G236E
B6: GpH7-B3 P271G / GpL16-k0 (antibody, human IgG1, kappa)
heavy: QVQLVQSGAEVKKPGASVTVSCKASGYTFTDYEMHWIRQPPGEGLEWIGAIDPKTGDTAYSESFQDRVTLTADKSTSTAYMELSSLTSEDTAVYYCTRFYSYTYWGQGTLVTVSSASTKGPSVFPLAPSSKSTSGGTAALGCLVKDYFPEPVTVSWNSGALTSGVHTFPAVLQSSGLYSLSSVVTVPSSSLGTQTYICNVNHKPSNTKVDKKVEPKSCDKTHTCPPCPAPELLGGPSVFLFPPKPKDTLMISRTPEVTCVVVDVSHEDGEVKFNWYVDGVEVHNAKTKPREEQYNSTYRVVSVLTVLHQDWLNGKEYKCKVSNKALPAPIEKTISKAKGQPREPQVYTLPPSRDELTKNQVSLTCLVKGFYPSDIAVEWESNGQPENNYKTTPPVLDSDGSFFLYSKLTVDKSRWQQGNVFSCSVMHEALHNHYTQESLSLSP
light: B1 light
notes: also called B3 variant P271G
B7: GpH7-B3 S239N / GpL16-k0 (antibody, human IgG1, kappa)
heavy: not shown
light: B1 light
notes: also called B3 variant S239N
B8: GpH7-B3 L234Y / GpL16-k0 (antibody, human IgG1, kappa)
heavy: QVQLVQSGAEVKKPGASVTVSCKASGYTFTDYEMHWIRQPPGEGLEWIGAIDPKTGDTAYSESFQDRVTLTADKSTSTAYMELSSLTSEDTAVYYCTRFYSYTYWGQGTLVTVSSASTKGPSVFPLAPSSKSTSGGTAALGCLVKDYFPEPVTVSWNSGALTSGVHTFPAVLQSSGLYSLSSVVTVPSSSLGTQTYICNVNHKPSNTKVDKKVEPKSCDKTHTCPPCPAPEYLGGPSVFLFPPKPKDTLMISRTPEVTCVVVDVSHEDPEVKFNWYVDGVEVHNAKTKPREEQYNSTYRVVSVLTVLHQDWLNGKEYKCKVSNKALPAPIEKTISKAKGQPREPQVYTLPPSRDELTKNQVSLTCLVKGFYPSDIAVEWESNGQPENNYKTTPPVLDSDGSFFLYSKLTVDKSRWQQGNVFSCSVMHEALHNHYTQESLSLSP
light: B1 light
notes: also called B3 variant L234Y
B9: GpH7-B3 K334D / GpL16-k0 (antibody, human IgG1, kappa)
heavy: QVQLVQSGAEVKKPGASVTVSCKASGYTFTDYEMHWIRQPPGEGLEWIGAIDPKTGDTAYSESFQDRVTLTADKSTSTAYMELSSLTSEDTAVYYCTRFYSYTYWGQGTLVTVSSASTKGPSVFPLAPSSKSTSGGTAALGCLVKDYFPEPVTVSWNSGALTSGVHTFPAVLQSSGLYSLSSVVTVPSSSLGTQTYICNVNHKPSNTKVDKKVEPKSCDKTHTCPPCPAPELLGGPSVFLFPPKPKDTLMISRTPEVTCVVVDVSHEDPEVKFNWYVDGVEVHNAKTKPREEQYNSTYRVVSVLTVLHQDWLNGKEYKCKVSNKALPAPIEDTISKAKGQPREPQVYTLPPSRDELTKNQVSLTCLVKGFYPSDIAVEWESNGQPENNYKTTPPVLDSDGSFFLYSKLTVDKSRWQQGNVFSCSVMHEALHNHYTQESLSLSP
light: B1 light
notes: also called B3 variant K334D
B10: GpH7-B3 S267A / GpL16-k0 (antibody, human IgG1, kappa)
heavy: not shown
light: B1 light
notes: also called B3 variant S267A
B11: GpH7-B3 S239V / GpL16-k0 (antibody, human IgG1, kappa)
heavy: not shown
light: B1 light
notes: also called B3 variant S239V
B12: GpH7-B3 G236S / GpL16-k0 (antibody, human IgG1, kappa)
heavy: not shown
light: B1 light
notes: also called B3 variant G236S
B13: GpH7-B3 S298L / GpL16-k0 (antibody, human IgG1, kappa)
heavy: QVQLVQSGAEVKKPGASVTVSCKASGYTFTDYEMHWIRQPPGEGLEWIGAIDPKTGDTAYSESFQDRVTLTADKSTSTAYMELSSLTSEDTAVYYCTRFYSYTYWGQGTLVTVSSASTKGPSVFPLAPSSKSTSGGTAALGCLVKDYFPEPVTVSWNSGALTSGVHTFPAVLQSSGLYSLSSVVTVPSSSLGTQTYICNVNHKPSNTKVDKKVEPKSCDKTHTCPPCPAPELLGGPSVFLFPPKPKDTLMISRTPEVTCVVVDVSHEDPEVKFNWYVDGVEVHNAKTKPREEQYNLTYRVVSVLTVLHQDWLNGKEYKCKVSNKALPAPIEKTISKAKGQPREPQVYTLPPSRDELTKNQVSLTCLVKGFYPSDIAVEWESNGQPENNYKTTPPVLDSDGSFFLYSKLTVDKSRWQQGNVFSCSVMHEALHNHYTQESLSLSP
light: B1 light
notes: also called B3 variant S298L
B14: GpH7-B3 K326T / GpL16-k0 (antibody, human IgG1, kappa)
heavy: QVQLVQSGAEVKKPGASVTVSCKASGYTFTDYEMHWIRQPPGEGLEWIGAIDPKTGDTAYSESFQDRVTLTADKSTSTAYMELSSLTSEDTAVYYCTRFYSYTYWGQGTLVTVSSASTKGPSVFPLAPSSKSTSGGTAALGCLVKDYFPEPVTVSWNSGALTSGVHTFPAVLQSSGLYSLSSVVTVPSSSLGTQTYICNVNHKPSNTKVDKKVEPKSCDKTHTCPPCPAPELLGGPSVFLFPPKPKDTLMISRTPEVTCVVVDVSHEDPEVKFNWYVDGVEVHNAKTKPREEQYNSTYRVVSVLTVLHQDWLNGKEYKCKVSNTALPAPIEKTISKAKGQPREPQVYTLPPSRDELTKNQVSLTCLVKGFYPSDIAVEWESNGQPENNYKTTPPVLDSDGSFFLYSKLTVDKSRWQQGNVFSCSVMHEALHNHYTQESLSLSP
light: B1 light
notes: also called B3 variant K326T
B15: GpH7-B3 S239I / GpL16-k0 (antibody, human IgG1, kappa)
heavy: not shown
light: B1 light
notes: also called B3 variant S239I
B16: GpH7-B3 L328T / GpL16-k0 (antibody, human IgG1, kappa)
heavy: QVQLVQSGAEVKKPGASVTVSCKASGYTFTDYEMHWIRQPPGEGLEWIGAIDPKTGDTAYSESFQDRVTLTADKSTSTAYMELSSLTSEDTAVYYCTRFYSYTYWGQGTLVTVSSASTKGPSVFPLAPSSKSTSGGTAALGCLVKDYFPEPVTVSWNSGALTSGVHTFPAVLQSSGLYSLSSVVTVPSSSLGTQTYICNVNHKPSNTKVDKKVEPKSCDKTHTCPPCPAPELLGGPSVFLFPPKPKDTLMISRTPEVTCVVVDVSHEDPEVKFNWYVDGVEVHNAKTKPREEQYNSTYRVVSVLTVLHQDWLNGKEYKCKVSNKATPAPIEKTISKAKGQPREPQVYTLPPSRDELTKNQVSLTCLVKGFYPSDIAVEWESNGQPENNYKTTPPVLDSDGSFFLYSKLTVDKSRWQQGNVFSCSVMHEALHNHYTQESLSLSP
light: B1 light
notes: also called B3 variant L328T
B17: GpH7-B3 K334M / GpL16-k0 (antibody, human IgG1, kappa)
heavy: not shown
light: B1 light
notes: also called B3 variant K334M
B18: GpH7-B3 L235W / GpL16-k0 (antibody, human IgG1, kappa)
heavy: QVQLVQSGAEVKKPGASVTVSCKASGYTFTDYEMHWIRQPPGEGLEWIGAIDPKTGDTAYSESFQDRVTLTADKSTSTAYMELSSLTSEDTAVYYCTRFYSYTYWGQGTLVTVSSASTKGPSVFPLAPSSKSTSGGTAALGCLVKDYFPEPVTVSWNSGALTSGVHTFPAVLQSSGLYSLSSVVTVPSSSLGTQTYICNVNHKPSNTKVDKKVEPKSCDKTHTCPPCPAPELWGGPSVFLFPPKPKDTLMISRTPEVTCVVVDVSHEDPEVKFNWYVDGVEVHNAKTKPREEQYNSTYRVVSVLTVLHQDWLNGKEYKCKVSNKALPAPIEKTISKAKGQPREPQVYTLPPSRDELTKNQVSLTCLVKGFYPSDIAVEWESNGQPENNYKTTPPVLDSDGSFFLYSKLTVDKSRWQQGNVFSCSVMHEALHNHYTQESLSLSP
light: B1 light
notes: also called B3 variant L235W
B19: GpH7-B3 Q295L / GpL16-k0 (antibody, human IgG1, kappa)
heavy: not shown
light: B1 light
notes: also called B3 variant Q295L
B20: GpH7-B3 K334Y / GpL16-k0 (antibody, human IgG1, kappa)
heavy: not shown
light: B1 light
notes: also called B3 variant K334Y
B21: GpH7-B3 H268D / GpL16-k0 (antibody, human IgG1, kappa)
heavy: not shown
light: B1 light
notes: also called B3 variant H268D
B22: GpH7-B3 I332D / GpL16-k0 (antibody, human IgG1, kappa)
heavy: not shown
light: B1 light
notes: also called B3 variant I332D
B23: GpH7-B3 L234W / GpL16-k0 (antibody, human IgG1, kappa)
heavy: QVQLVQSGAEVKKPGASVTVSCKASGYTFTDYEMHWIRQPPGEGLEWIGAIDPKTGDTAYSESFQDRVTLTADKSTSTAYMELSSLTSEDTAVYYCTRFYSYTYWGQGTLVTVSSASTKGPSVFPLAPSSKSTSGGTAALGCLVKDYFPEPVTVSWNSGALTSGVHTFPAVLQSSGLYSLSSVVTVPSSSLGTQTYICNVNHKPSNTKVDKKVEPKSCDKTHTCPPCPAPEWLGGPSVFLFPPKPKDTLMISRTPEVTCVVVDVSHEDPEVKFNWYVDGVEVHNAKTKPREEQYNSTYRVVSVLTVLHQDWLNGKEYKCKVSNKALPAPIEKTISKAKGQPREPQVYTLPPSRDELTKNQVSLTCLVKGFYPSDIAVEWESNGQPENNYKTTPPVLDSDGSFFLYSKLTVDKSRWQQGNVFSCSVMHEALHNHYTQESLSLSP
light: B1 light
notes: also called B3 variant L234W
B24: GpH7-B3 P331E / GpL16-k0 (antibody, human IgG1, kappa)
heavy: not shown
light: B1 light
notes: also called B3 variant P331E

Biological target: T1, human FcγRIIaH extracellular domain, …
Assay: SPR (Biacore), 25C, FcgR bound per antibody captured

| Binding to human FcgRs (parent B3 = 100) | Binder |
| --- | --- |
| 109 | B1 |
| 169 | B2 |
| 169 | B3 |
| 172 | B4 |
| 142 | B5 |
| 152 | B6 |
| 99 | B7 |
| 38 | B8 |
| 97 | B9 |
| 176 | B10 |
| 79 | B11 |
| 147 | B12 |
| 99 | B13 |
| 138 | B14 |
| 82 | B15 |
| 156 | B16 |
| 151 | B17 |
| 136 | B18 |
| 128 | B19 |
| 157 | B20 |
| 173 | B21 |
| 129 | B22 |
| 64 | B23 |
| 96 | B24 |

Biological target: T2, human FcγRIIaR extracellular domain, …
Assay: as above

| Binding to human FcgRs (parent B3 = 100) | Binder |
| --- | --- |
| 91 | B1 |
| 137 | B2 |
| 132 | B3 |
| 132 | B4 |
| 131 | B5 |
| 130 | B6 |
| 80 | B7 |
| 50 | B8 |
| 72 | B9 |
| 125 | B10 |
| 71 | B11 |
| 161 | B12 |
| 71 | B13 |
| 127 | B14 |
| 75 | B15 |
| 135 | B16 |
| 127 | B17 |
| 128 | B18 |
| 148 | B19 |
| 131 | B20 |
| 142 | B21 |
| 139 | B22 |
| 63 | B23 |
| 67 | B24 |

Biological target: T4, human FcγRIIIaV extracellular domain, His-tagged (human, UniProt P08637 17-208)
T4 construct: also called human FcgRIIIaV
Assay: as above

| Binding to human FcgRs (parent B3 = 100) | Binder |
| --- | --- |
| 25 | B1 |
| 187 | B2 |
| 205 | B3 |
| 176 | B4 |
| 33 | B5 |
| 93 | B6 |
| 111 | B7 |
| 63 | B8 |
| 155 | B9 |
| 145 | B10 |
| 48 | B11 |
| 33 | B12 |
| 51 | B13 |
| 164 | B14 |
| 47 | B15 |
| 53 | B16 |
| 183 | B17 |
| 40 | B18 |
| 135 | B19 |
| 188 | B20 |
| 220 | B21 |
| 235 | B22 |
| 36 | B23 |
| 46 | B24 |

Biological target: T3, human FcγRIIb extracellular domain, …
Assay: as above

| Binding to human FcgRs (parent B3 = 100) | Binder |
| --- | --- |
| 212 | B1 |
| 174 | B2 |
| 283 | B3 |
| 184 | B4 |
| 117 | B5 |
| 252 | B6 |
| 124 | B7 |
| 55 | B8 |
| 108 | B9 |
| 283 | B10 |
| 107 | B11 |
| 87 | B12 |
| 114 | B13 |
| 195 | B14 |
| 108 | B15 |
| 179 | B16 |
| 148 | B17 |
| 130 | B18 |
| 156 | B19 |
| 160 | B20 |
| 307 | B21 |
| 198 | B22 |
| 90 | B23 |
| 100 | B24 |
